Our source for the Kd values is publication PMC4026020.

In general, Kd refers to the equilibrium constant for the complex coming apart. High values mean lower affinity, low ones higher affinity.

Common to all, as to assay: fluorescence anisotropy
Background: Polarisation of emitted light reports the rotation of a fluorescent probe.

Data set [1] addresses T1, MBP-AtTZF1 RR;MBP-AtTZF1 TZF (Arabidopsis thaliana;Arabidopsis …, UniProt O82307;O82307 86-128;129-195, |).
T1 sequence 1: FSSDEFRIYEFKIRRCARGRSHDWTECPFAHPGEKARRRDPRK
T1 sequence 2: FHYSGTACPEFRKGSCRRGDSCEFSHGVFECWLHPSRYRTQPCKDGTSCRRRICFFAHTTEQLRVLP

For data set [2], the target named is T2, MBP-AtTZF1 RR-TZF C136R/C171R (Arabidopsis thaliana, UniProt O82307 86-195, C136R;C171R).
T2 sequence: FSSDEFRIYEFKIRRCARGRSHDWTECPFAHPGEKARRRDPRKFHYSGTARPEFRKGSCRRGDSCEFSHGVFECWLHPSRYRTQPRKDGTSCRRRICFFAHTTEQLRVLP

In the next data set the target is T3, MBP-AtTZF1 RR-TZF C101R (Arabidopsis thaliana, UniProt O82307 86-195, C101R).
T3 sequence: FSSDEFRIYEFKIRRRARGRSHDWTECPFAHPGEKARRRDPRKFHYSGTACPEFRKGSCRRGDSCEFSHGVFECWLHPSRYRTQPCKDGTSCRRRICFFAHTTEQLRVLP

Data set [3] concerns the target T4, MBP-AtTZF1 RR-TZF C101R/C136R/C171R (Arabidopsis thaliana, UniProt O82307 86-195, C101R;C136R;C171R).
T4 sequence: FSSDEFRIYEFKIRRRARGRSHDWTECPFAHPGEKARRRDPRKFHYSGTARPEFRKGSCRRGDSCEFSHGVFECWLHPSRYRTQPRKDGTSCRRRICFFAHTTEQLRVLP

B1: Fl-ARE19 (ssRNA)
RNA: UAUUUAUUAUUUAUUUAUU
For the molecule B1, the figures for the Kd in data set [1] and in data set [2] were 0.61 ± 0.04 µM and 1.54 ± 0.05 µM, respectively.

B2: Fl-polyU (ssRNA)
RNA: UUUUUUUUUUUUUUUUUUU
Take B2: the Kd in data set [1] amounted to 4.4 ± 0.1 µM; with MBP-AtTZF1 RR-TZF C101R it was 0.81 ± 0.04 µM; in data set [2] it was 1.61 ± 0.04 µM; in data set [3], 3.11 ± 0.08 µM.
